# In article PMC9669019, “Molecular basis for integrin adhesion receptor binding to p21-activated kinase 4 (PAK4)” (Communications Biology, 2022):
# Columns and labels:
# [1] = system: integrin β5 tail; assay: Pull-down of wild-type and mutated full-length GFP-PAK4 by wild-type integrin β5 tail; type: binding
# Description: (§1) Pull down assays were performed as previously described[45],[60]. Briefly, constructs encoding an N-terminal His-tag followed by a helical region, a 4-glycine spacer, and an integrin cytoplasmic tail sequence were produced in BL21 (DE3) bacteria. Following bacterial cell lysis, recombinant protein was bound to Ni-NTA beads, eluted with imidazole, dialyzed and further purified by reverse-phase high-performance liquid chromatography (HPLC). Purified protein was lyophilized for storage and was used to coat fresh Ni-NTA beads to generate an affinity matrix for pull-down assays.
# (§2) For pulldowns from cell lysates, human PAK4 constructs were generated in pEGFP (Takara Bio Inc.) by PCR amplification from a pLX304 PAK4 isoform 1 (Uniprot O96013-1) construct kindly provided by Michael Calderwood (Dana-Farber Cancer Institute). Mutations and deletions were introduced by QuikChange mutagenesis or PCR amplification. Chinese hamster ovary (CHO) cells were seeded on 10 cm tissue culture dishes and transiently transfected with GFP-tagged constructs using polyethylenimine (Polysciences). After 24 h, cells were harvested and lysed in buffer X (1 mM NaVO4, 50 mM NaF, 40 mM sodium pyrophosphate, 50 mM NaCl, 150 mM sucrose, 10 mM Pipes, pH 6.8) containing 0.5% Triton X-100, 0.2% deoxycholic acid, and complete EDTA-free protease inhibitor mixture (Roche, Indianapolis, IN, USA) for 15 min at 4 °C. After clarification by centrifugation, lysate was diluted in buffer X-T (buffer X with 0.05% Triton X-100) and incubated with His-tagged integrin tails coupled to Ni-NTA beads for 4 h with rocking at 4 °C. For experiments using purified PAK4cat, protein was incubated with His-tagged integrin tails coupled to Ni-NTA beads in buffer X-T for 2 h with rocking at 4 °C. Beads were then washed three times with buffer X-T, and bound proteins were fractionated by reducing SDS-PAGE and analyzed by immunoblotting with anti-GFP antibodies (600-101-215, Rockland). Immunoblots were imaged on an Odyssey IR imaging system (Li-Cor; Lincoln, NE, USA) and analyzed using Image Studio Lite (Li-Cor; Lincoln, NE, USA). For the quantification of binding from immunoblots, the fluorescence intensity of the band corresponding to bound material was quantified as a fraction of the fluorescence of the input material band for each condition. Loading of integrin tails was assessed by Coomassie Blue staining. Data were analyzed using GraphPad Prism.
# [2] = system: integrin β5 tail; assay: Pull-down of wild-type and mutated GFP-PAK4 catalytic domain by wild-type integrin β5 tail; type: binding; conditions: for Effect of PAK4 mutation on pull-down by integrin β5: catalytic domain (Fig. 4g) and full-length PAK4 (Fig. 4h)
# Description: as §1, §2
# [3] = Figure 4H source data, full-length PAK4, experiment row r4
# [4] = Figure 4G source data, PAK4 catalytic domain, replicate 1
"Binding to wild-type integrin β5 tail, normalized to FL-WT [1, 3]","Binding to wild-type integrin β5 tail, normalized to FL-WT ([1]; Figure 4H, experiment row r5)","Binding to wild-type integrin β5 tail, normalized to cat-WT [2, 4]","Binding to wild-type integrin β5 tail, normalized to cat-WT ([2]; Figure 4G, replicate 2)","Binding to wild-type integrin β5 tail, normalized to cat-WT ([2]; Figure 4G, replicate 3)","Binding to wild-type integrin β5 tail, normalized to cat-WT ([2]; Figure 4G, replicate 4)","Binding to wild-type integrin β5 tail, normalized to cat-WT ([2]; Figure 4G, replicate 5)","Binding to wild-type integrin β5 tail, normalized to cat-WT ([2]; Figure 4G, replicate 6)","Binding to wild-type integrin β5 tail, normalized to cat-WT ([2]; Figure 4G, replicate 7)","Binding to wild-type integrin β5 tail, normalized to FL-WT ([1]; Figure 4H, experiment row r8)","Binding to wild-type integrin β5 tail, normalized to FL-WT ([1]; Figure 4H, experiment row r10)","Binding to wild-type integrin β5 tail, normalized to FL-WT ([1]; Figure 4H, experiment row r17)","Binding to wild-type integrin β5 tail, normalized to FL-WT ([1]; Figure 4H, experiment row r19)","Binding to wild-type integrin β5 tail, normalized to FL-WT ([1]; Figure 4H, experiment row r6)","Binding to wild-type integrin β5 tail, normalized to FL-WT ([1]; Figure 4H, experiment row r7)",Molecule,Effect of PAK4 mutation on pull-down by integrin β5 [2],also measured
0.235,0.008,0.04069,0.001166,0.2433,0.09577,3.582e-6,0.09749,0.0832,,,,,,,"D444A: GFP-tagged PAK4 D444A mutant; catalytic domain (Fig 4G) or full-length (Fig 4H) (protein, UniProt O96013 1-591, looked up, variant D444A, GFP tag; catalytic domain or full-length) Serine/threonine-protein …: MFGKRKKRVEISAPSNFEHRVHTGFDQHEQKFTGLPRQWQSLIEESARRPKPLVDPACITSIQPGAPKTIVRGSKGAKDGALTLLLDEFENMSVTRSNSLRRDSPPPPARARQENGMPEEPATTARGGPGKAGSRGRFAGHSEAGGGSGDRRRAGPEKRPKSSREGSGGPQESSRDKRPLSGPDVGTPQPAGLASGAKLAAGRPFNTYPRADTDHPSRGAQGEPHDVAPNGPSAGGLAIPQSSSSSSRPPTRARGAPSPGVLGPHASEPQLAPPACTPAAPAVPGPPGPRSPQREPQRVSHEQFRAALQLVVDPGDPRSYLDNFIKIGEGSTGIVCIATVRSSGKLVAVKKMDLRKQQRRELLFNEVVIMRDYQHENVVEMYNSYLVGDELWVVMEFLEGGALTDIVTHTRMNEEQIAAVCLAVLQALSVLHAQGVIHRDIKSASILLTHDGRVKLSDFGFCAQVSKEVPRRKSLVGTPYWMAPELISRLPYGPEVDIWSLGIMVIEMVDGEPPYFNEPPLKAMKMIRDNLPPRLKNLHKVSPSLKGFLDRLLVRDPAQRATAAELLKHPFLAKAGPPASIVPLMRQNRTR",strong inhibition,"Binding to wild-type integrin β5 tail, normalized to FL-WT ([1]; Figure 4H, experiment row r14): 0.233; Binding to wild-type integrin β5 tail, normalized to FL-WT ([1]; Figure 4H, experiment row r15): 0.015"
0.221,0.9415,0.8373,0.4614,0.71,1.075,0.4677,1.0032,1.283,0.58,3.01,1.265,1.25,,,"Q358A: GFP-tagged PAK4 Q358A mutant; catalytic domain (Fig 4G) or full-length (Fig 4H) (protein, UniProt O96013 1-591, looked up, variant Q358A, GFP tag) Serine/threonine-protein …: MFGKRKKRVEISAPSNFEHRVHTGFDQHEQKFTGLPRQWQSLIEESARRPKPLVDPACITSIQPGAPKTIVRGSKGAKDGALTLLLDEFENMSVTRSNSLRRDSPPPPARARQENGMPEEPATTARGGPGKAGSRGRFAGHSEAGGGSGDRRRAGPEKRPKSSREGSGGPQESSRDKRPLSGPDVGTPQPAGLASGAKLAAGRPFNTYPRADTDHPSRGAQGEPHDVAPNGPSAGGLAIPQSSSSSSRPPTRARGAPSPGVLGPHASEPQLAPPACTPAAPAVPGPPGPRSPQREPQRVSHEQFRAALQLVVDPGDPRSYLDNFIKIGEGSTGIVCIATVRSSGKLVAVKKMDLRKQARRELLFNEVVIMRDYQHENVVEMYNSYLVGDELWVVMEFLEGGALTDIVTHTRMNEEQIAAVCLAVLQALSVLHAQGVIHRDIKSDSILLTHDGRVKLSDFGFCAQVSKEVPRRKSLVGTPYWMAPELISRLPYGPEVDIWSLGIMVIEMVDGEPPYFNEPPLKAMKMIRDNLPPRLKNLHKVSPSLKGFLDRLLVRDPAQRATAAELLKHPFLAKAGPPASIVPLMRQNRTR",no effect on binding,"Binding to wild-type integrin β5 tail, normalized to FL-WT ([1]; Figure 4H, experiment row r18): 0.66; Binding to wild-type integrin β5 tail, normalized to cat-WT ([2]; Figure 4G, replicate 8): 1.183; Binding to wild-type integrin β5 tail, normalized to cat-WT ([2]; Figure 4G, replicate 9): 0.828"
0.259,1.377,0.517,0.2755,0.5038,0.2427,0.2915,0.007133,,0.381,1.044,0.149,0.8,0.432,0.512,"M482K: GFP-tagged PAK4 M482K mutant; catalytic domain (Fig 4G) or full-length (Fig 4H) (protein, UniProt O96013 1-591, looked up, variant M482K, GFP tag) Serine/threonine-protein …: MFGKRKKRVEISAPSNFEHRVHTGFDQHEQKFTGLPRQWQSLIEESARRPKPLVDPACITSIQPGAPKTIVRGSKGAKDGALTLLLDEFENMSVTRSNSLRRDSPPPPARARQENGMPEEPATTARGGPGKAGSRGRFAGHSEAGGGSGDRRRAGPEKRPKSSREGSGGPQESSRDKRPLSGPDVGTPQPAGLASGAKLAAGRPFNTYPRADTDHPSRGAQGEPHDVAPNGPSAGGLAIPQSSSSSSRPPTRARGAPSPGVLGPHASEPQLAPPACTPAAPAVPGPPGPRSPQREPQRVSHEQFRAALQLVVDPGDPRSYLDNFIKIGEGSTGIVCIATVRSSGKLVAVKKMDLRKQQRRELLFNEVVIMRDYQHENVVEMYNSYLVGDELWVVMEFLEGGALTDIVTHTRMNEEQIAAVCLAVLQALSVLHAQGVIHRDIKSDSILLTHDGRVKLSDFGFCAQVSKEVPRRKSLVGTPYWKAPELISRLPYGPEVDIWSLGIMVIEMVDGEPPYFNEPPLKAMKMIRDNLPPRLKNLHKVSPSLKGFLDRLLVRDPAQRATAAELLKHPFLAKAGPPASIVPLMRQNRTR",moderate effect,"Binding to wild-type integrin β5 tail, normalized to FL-WT ([1]; Figure 4H, experiment row r11): 0.278"
,0.472,0.1343,0.09959,0.2543,0.09217,0.08446,0.3379,,0.106,,,,0.89,0.486,"E512R: GFP-tagged PAK4 E512R mutant; catalytic domain (Fig 4G) or full-length (Fig 4H) (protein, UniProt O96013 1-591, looked up, variant E512R, GFP tag) Serine/threonine-protein …: MFGKRKKRVEISAPSNFEHRVHTGFDQHEQKFTGLPRQWQSLIEESARRPKPLVDPACITSIQPGAPKTIVRGSKGAKDGALTLLLDEFENMSVTRSNSLRRDSPPPPARARQENGMPEEPATTARGGPGKAGSRGRFAGHSEAGGGSGDRRRAGPEKRPKSSREGSGGPQESSRDKRPLSGPDVGTPQPAGLASGAKLAAGRPFNTYPRADTDHPSRGAQGEPHDVAPNGPSAGGLAIPQSSSSSSRPPTRARGAPSPGVLGPHASEPQLAPPACTPAAPAVPGPPGPRSPQREPQRVSHEQFRAALQLVVDPGDPRSYLDNFIKIGEGSTGIVCIATVRSSGKLVAVKKMDLRKQQRRELLFNEVVIMRDYQHENVVEMYNSYLVGDELWVVMEFLEGGALTDIVTHTRMNEEQIAAVCLAVLQALSVLHAQGVIHRDIKSDSILLTHDGRVKLSDFGFCAQVSKEVPRRKSLVGTPYWMAPELISRLPYGPEVDIWSLGIMVIEMVDGRPPYFNEPPLKAMKMIRDNLPPRLKNLHKVSPSLKGFLDRLLVRDPAQRATAAELLKHPFLAKAGPPASIVPLMRQNRTR",strong inhibition,"Binding to wild-type integrin β5 tail, normalized to FL-WT ([1]; Figure 4H, experiment row r9): 0.64"
